Test results: publication PMC2577335

Columns and labels:
Experiment in all cases: equilibrium binding isotherms of eEF2 on ribosomes
[1] = biological target: yeast ribosomes (salt-washed) with ribosomal protein L3 mutant S2T (S. cerevisiae) (UniProt P14126)
[2] = biological target: yeast ribosomes (salt-washed) with ribosomal protein L3 mutant S2A (S. cerevisiae) (UniProt P14126)
[3] = biological target: wild-type yeast ribosomes (salt-washed), with wild-type ribosomal protein L3 (S. cerevisiae) (UniProt P14126)
[4] = biological target: yeast ribosomes (salt-washed) with ribosomal protein L3 mutant S2K (S. cerevisiae) (UniProt P14126)

“6 × His-tagged eEF2 (elongation factor 2) (from UniProt P32324 1-842) (natural protein)” gave a Kd [1] of 20.7 nM, a Kd [2] of 19.9 nM and a Kd [3] of 18.7 nM. The Kd [4] was 20.4 nM.
